{"source": "patent US20250018014A1", "about": "“METHOD FOR TREATING AND/OR PREVENTING REGNASE-1-RELATED DISEASE” (OSAKA UNIVERSITY, priority 2018, published 2025)", "molecules": {"B1": {"name": "REB0007: anti-Regnase-1 antibody; heavy chain SEQ ID NO: 24, light chain SEQ ID NO: 25 (antibody)", "heavy": "QEQLEESGGDLVKPEGSLTLTCTASGFSFNSRYWICWVRQAPGKGLEWIGCIVSGDSNTYYASWAKGRFTISKTSSTTVTLQMTSLTAADTATYFCARWYTSSRPGLWGPGTLVTVSSGQPKAPSVFPLAPCCGDTPSSTVTLGCLVKGYLPEPVTVTWNSGTLTNGVRTFPSVRQSSGLYSLSSVVSVTSSSQPVTCNVAHPATNTKVDKTVAPSTCSKPTCPPPELLGGPSVFIFPPKPKDTLMISRTPEVTCVVVDVSQDDPEVQFTWYINNEQVRTARPPLREQQFNSTIRVVSTLPITHQDWLRGKEFKCKVHNKALPAPIEKTISKARGQPLEPKVYTMGPPREELSSRSVSLTCMINGFYPSDISVEWEKNGKAEDNYKTTPAVLDSDGSYFLYNKLSVPTSEWQRGDVFTCSVMHEALHNHYTQKSISRSPGK", "light": "DVVMTQTPASVSEPVGGTVTIKCQASQSISSYLSWYQQKPGQPPKLLIYSATNLASGVSSRFKGSRFGTEFTLTISDLECDDAATYYCQCSYYVSGFAFGGGTEVVVKGDPVAPTVLIFPPAADQVATGTVTIVCVANKYFPDVTVTWEVDGTTQTTGIENSKTPQNSADCTYNLSSTLTLTSTQYNSHKEYTCKVTQGTTSVVQSFNRGD"}, "B2": {"name": "REB0014: anti-Regnase-1 antibody; heavy chain SEQ ID NO: 26, light chain SEQ ID NO: 27 (antibody)", "heavy": "QSLEESGGGLVKPGGTLTLTCKASGIDFSSYYYMCWVRQAPGKGLEWIACIYSGDGSSYYVSWANGRFTISKTSSATVTLQMTSLTAADTATYFCARDLGNLWGPGTLVTVSSGQPKAPSVFPLAPCCGDTPSSTVTLGCLVKGYLPEPVTVTWNSGTLTNGVRTFPSVRQSSGLYSLSSVVSVTSSSQPVTCNVAHPATNTKVDKTVAPSTCSKPTCPPPELLGGPSVFIFPPKPKDTLMISRTPEVTCVVVDVSQDDPEVQFTWYINNEQVRTARPPLREQQFNSTIRVVSTLPITHQDWLRGKEFKCKVHNKALPAPIEKTISKARGQPLEPKVYTMGPPREELSSRSVSLTCMINGFYPSDISVEWEKNGKAEDNYKTTPAVLDSDGSYFLYNKLSVPTSEWQRGDVFTCSVMHEALHNHYTQKSISRSPGK", "light": "QVLTQTPASVSAAVGGTVTINCQASQSVYKNSGLSWFQQKPGQSPKRLIYSASTLDSGVPSRFKGSGSGTQFTLTISDVQCDDAATYYCLGIYVCSSVDCGAFGGGTEVVVKGDPVAPTVLIFPPAADQVATGTVTIVCVANKYFPDVTVTWEVDGTTQTTGIENSKTPQNSADCTYNLSSTLTLTSTQYNSHKEYTCKVTQGTTSVVQSFNRGDC"}, "B3": {"name": "REB0022: anti-Regnase-1 antibody; heavy chain SEQ ID NO: 28, light chain SEQ ID NO: 29 (antibody)", "heavy": "QEQLEESGGDLVKPEGSLTLTCTASGGSFSSRYWMCWVRQAPGKGLEWIACIVIGDRNNYYASWAKGRFTISKTSSTTVTLQMTSLTAADTATYFCARWHSSTAPSLWGPGTLVTVSSGQPKAPSVFPLAPCCGDTPSSTVTLGCLVKGYLPEPVTVTWNSGTLTNGVRTFPSVRQSSGLYSLSSVVSVTSSSQPVTCNVAHPATNTKVDKTVAPSTCSKPTCPPPELLGGPSVFIFPPKPKDTLMISRTPEVTCVVVDVSQDDPEVQFTWYINNEQVRTARPPLREQQFNSTIRVVSTLPITHQDWLRGKEFKCKVHNKALPAPIEKTISKARGQPLEPKVYTMGPPREELSSRSVSLTCMINGFYPSDISVEWEKNGKAEDNYKTTPAVLDSDGSYFLYNKLSVPTSEWQRGDVFTCSVMHEALHNHYTQKSISRSPGK", "light": "DVVMTQTPASVSEPVGGTVTINCQASQSISSYLSWYQQKPGQPPKLLIYKASTLASGVSSRFKGSGSGTEFTLTISDLECADAATYYCQCSYYVSGFVFGGGTEVVVKGDPVAPTVLIFPPAADQVATGTVTIVCVANKYFPDVTVTWEVDGTTQTTGIENSKTPQNSADCTYNLSSTLTLTSTQYNSHKEYTCKVTQGTTSVVQSFNRGDC"}, "B4": {"name": "REB0007 (antibody, V domains shown)", "VH": "QEQLEESGGDLVKPEGSLTLTCTASGFSFNSRYWICWVRQAPGKGLEWIGCIVSGDSNTYYASWAKGRFTISKTSSTTVTLQMTSLTAADTATYFCARWYTSSRPGLWGPGTLVTVSS", "VL": "DVVMTQTPASVSEPVGGTVTIKCQASQSISSYLSWYQQKPGQPPKLLIYSATNLASGVSSRFKGSRFGTEFTLTISDLECDDAATYYCQCSYYVSGFAFGGGTEVVVKG", "notes": "Cloned from immunized rabbits, expressed in HEK293 cells, purified by Protein A; also called anti-Regnase-1 antibody; anti-non-phosphorylated Regnase-1 peptide antibody"}, "B5": {"name": "REB0022 (antibody, V domains shown)", "VH": "QEQLEESGGDLVKPEGSLTLTCTASGGSFSSRYWMCWVRQAPGKGLEWIACIVIGDRNNYYASWAKGRFTISKTSSTTVTLQMTSLTAADTATYFCARWHSSTAPSLWGPGTLVTVSS", "VL": "B4 VL with K22N, S50K, T52S, N53T, R66G, F67S, D81A, A98V", "notes": "as for B4"}, "B6": {"name": "REB0014 (antibody, V domains shown)", "VH": "QSLEESGGGLVKPGGTLTLTCKASGIDFSSYYYMCWVRQAPGKGLEWIACIYSGDGSSYYVSWANGRFTISKTSSATVTLQMTSLTAADTATYFCARDLGNLWGPGTLVTVSS", "VL": "QVLTQTPASVSAAVGGTVTINCQASQSVYKNSGLSWFQQKPGQSPKRLIYSASTLDSGVPSRFKGSGSGTQFTLTISDVQCDDAATYYCLGIYVCSSVDCGAFGGGTEVVVKG", "notes": "as for B4"}}, "note": "Substitutions are numbered along the chain they refer to. No end group written: not given here."}
{"molecular_target": "T1, Peptide 2 ([…]-NH2), partial peptide of human Regnase-1 (Homo sapiens, UniProt Q5D1E8)", "T1 construct": "made in house; host or cells: chemical synthesis", "assay": "Binding of anti-non-phosphorylated Regnase-1 peptide antibodies to bead-bound Peptide 2 (iQue screener)", "conditions": "streptavidin-immobilized beads; histograms FIG. 32", "procedure": "(§1) • Biotin-Conjugated FL_Reg1, Biotin-Conjugated Peptide • […], biotin-conjugated peptide • AFPPREYWSEPYPLPPPTC-NH2, and biotinylated BSA (Sigma, A8549) were each bound to streptavidin-immobilized beads.\n(§2) These beads were mixed with each anti-Regnase-1 antibody, and they were allowed to react. Thereafter, Anti-Rabbit IgG1 Alexa488 (molecular probes, A21244) was mixed and reacted, and analysis was performed with iQue screener PLUS (intellicyt). Data was analyzed with FlowJo ver10."}
{"molecule": "B1", "binding to Peptide 2 compared with biotinylated BSA": "bound more strongly"}
{"molecule": "B2", "binding to Peptide 2 compared with biotinylated BSA": "bound more strongly"}
{"molecule": "B3", "binding to Peptide 2 compared with biotinylated BSA": "bound more strongly"}
{"molecular_target": "T2, FL_Reg1 (human full-length Regnase-1) (Homo sapiens, UniProt Q5D1E8)", "T2 construct": "made in house; host or cells: Expi293 cells", "T2 sequence (Q5D1E8 1-599)": "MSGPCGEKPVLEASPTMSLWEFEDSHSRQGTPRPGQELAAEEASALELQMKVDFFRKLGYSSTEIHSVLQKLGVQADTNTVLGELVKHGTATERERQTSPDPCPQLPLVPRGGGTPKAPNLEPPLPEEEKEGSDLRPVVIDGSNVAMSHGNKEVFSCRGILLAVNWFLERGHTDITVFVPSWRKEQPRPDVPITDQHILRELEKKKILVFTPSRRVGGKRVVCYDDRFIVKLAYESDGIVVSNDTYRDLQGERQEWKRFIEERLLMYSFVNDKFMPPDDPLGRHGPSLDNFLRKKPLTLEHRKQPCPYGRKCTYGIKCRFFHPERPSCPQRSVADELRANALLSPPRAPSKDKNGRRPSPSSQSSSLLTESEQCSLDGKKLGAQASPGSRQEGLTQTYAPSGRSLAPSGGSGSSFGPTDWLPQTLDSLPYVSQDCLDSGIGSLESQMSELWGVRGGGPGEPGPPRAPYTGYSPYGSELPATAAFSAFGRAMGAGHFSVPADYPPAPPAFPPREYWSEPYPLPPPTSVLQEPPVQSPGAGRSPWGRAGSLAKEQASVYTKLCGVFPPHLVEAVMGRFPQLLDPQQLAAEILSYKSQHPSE", "assay": "Binding of anti-non-phosphorylated Regnase-1 peptide antibodies to bead-bound full length human Regnase-1 (iQue screener)", "conditions": "streptavidin-immobilized beads; histograms FIG. 32", "procedure": "as §1, §2"}
{"molecule": "B1", "binding to FL_Reg1 compared with biotinylated BSA": "bound more strongly"}
{"molecule": "B2", "binding to FL_Reg1 compared with biotinylated BSA": "bound more strongly"}
{"molecule": "B3", "binding to FL_Reg1 compared with biotinylated BSA": "bound more strongly"}
{"molecular_target": "T3, Regnase-1 phosphorylation by TBK1 (Homo sapiens, UniProt Q5D1E8)", "T3 construct": "GST (N, cleaved yes); made in house; host or cells: Expi293 cells", "T3 sequence (Q5D1E8 1-599)": "T2 sequence (Q5D1E8 1-599)", "assay": "Inhibitory activity of anti-Regnase-1 antibodies against Regnase-1 phosphorylation by TBK1 (Phos-tag gel, western blotting)", "format": "biochemical", "conditions": "antibody at final concentrations of 16.7 μg/mL and 5.0 μg/mL; relative to Control group", "procedure": "To a solution (ATP buffer) containing Kinase Assay Buffer III (manufactured by SignalChem) supplemented with 2 mM DTT, 100 μM sodium vanadate, 2 mM manganese chloride, and 15 μM ATP, dephosphorylated Regnase-1 was mixed at 150 nM. Four microliters of this solution and 4 μL of HEPES Buffered Saline containing 50 μg/mL or 15 μg/mL of anti-Regnase-1 antibody were mixed, and this was allowed to react for one hour. This reaction solution was mixed with 4 μL of ATP buffer containing 150 nM of each kinase (IKKβ or TBK1), and further reacted for one hour. After the reaction, 4 μL of 4× Laemmli Sample buffer (manufactured by Bio-Rad) was added and this mixture was incubated at 95° C. for five minutes for protein denaturation treatment. This sample was ice-cooled for three minutes, and 10 μL of it was added to SuperSep Phos-tag 7.5% 17 wells (manufactured by Wako) placed in EasySeparator (manufactured by Wako). As a marker, 10 μL of WIDE-VIEW Prestained Protein Size Marker III (manufactured by Wako) was added, and the EasySeparator was filled with Tris-Glycine SDS buffer (manufactured by Takara). After electrophoresis at 175 V for 70 minutes, this was washed with 10% Tris-Glycine SDS buffer containing 5 mM EDTA and 20% MeOH for 10 minutes. After two further washings, washing was performed with 10% Tris-Glycine SDS buffer containing 20% MeOH for ten minutes. The washed gel was placed in the Trans-Blot Turbo Transfer Pack (manufactured by Bio-Rad), and transferred using the BioRad Transfer Turbo (manufactured by Bio-Rad). […] Chemiluminescence was detected using ImageQuant LAS4000 mini (manufactured by GE Healthcare).\nA band for phosphorylated Regnase-1 was detected due to treatment with each kinase (FIG. 33A). Band densities were measured with Image Quant-TL (manufactured by GE Healthcare). The relative value for the band density of the sample to which each compound was added was calculated, considering the band density of the kinase-added sample of the Control group, to which no compound was added, as 1. […]"}
{"molecule": "B1", "density of the phosphorylated Regnase-1 band in TBK1 treatment": "decreased"}
{"molecule": "B2", "density of the phosphorylated Regnase-1 band in TBK1 treatment": "decreased"}
{"molecule": "B3", "density of the phosphorylated Regnase-1 band in TBK1 treatment": "decreased"}
{"molecular_target": "T4, Peptide 2 (AFPPREYWSEPYPLPPPTC-NH2), biotin-conjugated (human, also: biotin-conjugated, position not given here)", "T4 peptide": "AFPPREYWSEPYPLPPPTC-NH2", "assay": "flow cytometry of streptavidin beads carrying the biotinylated antigen, anti-rabbit IgG Alexa488", "conditions": "not given", "procedure": "as §2"}
{"molecule": "B4", "binding result": "binds"}
{"molecule": "B5", "binding result": "binds"}
{"molecule": "B6", "binding result": "binds"}
